Test results taken from publication PMC3078924.

Target: recombinant ATP synthase subunit β of A. actinomycetemcomitans, as purified (Aggregatibacter actinomycetemcomitans ATCC 700685 (HK1651))
Assay: native gel or EMSA; recombinant ATP synthase subunit β on native PAGE, silver stained; three prominent forms

- stoichiometry N: 3
Substance: recombinant ATP synthase subunit β of A. actinomycetemcomitans, as purified (enzyme)
